Experimental data: publication PMC5750214
Positions count from the first letter of the chain named. Names and notes keep the numbering of the source. Values belong to the binder of their own block, whether it stands above or below them.

Assays:
[1] = molecular target: β-arrestin-2-RLuc, P32121; assay: BRET; conditions: chain shown with the change, HEK293A cells, read off a plot
[2] = molecular target: β-arrestin-2-RLuc, P32121; assay: BRET; conditions: chain shown with the change, HEK293A cells, read off a plot; remark: listed apart in the source
[125I]-Angiotensin II = competitive radioligand binding assay; conditions: chain shown with the change, value read from the curve at the x tick, read off a plot
[3] = molecular target: β-arrestin-2-RLuc, P32121; assay: BRET; conditions: chain shown with the change, HEK293A cells, read off a plot; remark: listed apart in the source
[4] = CTL (no stimulation), parent: est. 0.624
[5] = Hcy (100 μM), parent: est. 0.632
[6] = Ang II (1 μM), parent: est. 0.672
[7] = no stimulation (open bar, labelled WT in the key), parent: est. 0.624

Sequence of β-arrestin-2-RLuc, P32121 (P32121 whole entry): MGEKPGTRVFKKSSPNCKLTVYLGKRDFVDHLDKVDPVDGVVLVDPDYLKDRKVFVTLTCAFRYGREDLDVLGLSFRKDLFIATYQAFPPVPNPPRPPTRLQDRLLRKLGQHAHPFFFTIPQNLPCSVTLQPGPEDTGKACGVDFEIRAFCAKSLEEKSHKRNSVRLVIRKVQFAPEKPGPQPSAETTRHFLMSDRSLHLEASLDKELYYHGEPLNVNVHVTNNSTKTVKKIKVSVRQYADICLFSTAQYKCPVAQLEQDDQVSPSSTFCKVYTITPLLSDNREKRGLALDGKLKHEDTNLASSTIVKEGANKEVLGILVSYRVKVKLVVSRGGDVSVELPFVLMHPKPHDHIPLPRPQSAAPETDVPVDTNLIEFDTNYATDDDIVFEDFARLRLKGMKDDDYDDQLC

B3: human angiotensin II type 1 (AT1) receptor, P30556 R167A (protein)
chain: MILNSSTEDGIKRIQDDCPKAGRHNYIFVMIPTLYSIIFVVGIFGNSLVVIVIYFYMKLKTVASVFLLNLALADLCFLLTLPLWAVYTAMEYRWPFGNYLCKIASASVSFNLYASVFLLTCLSIDRYLAIVHPMKSRLRRTMLVAKVTCIIIWLLAGLASLPAIIHANVFFIENTNITVCAFHYESQNSTLPIGLGLTKNILGFLFPFLIILTSYTLIWKALKKAYEIQKNKPRNDDIFKIIMAIVLFFFFSWIPHQIFTFLDVLIQLGIIRDCRIADIVDTAMPITICIAYFNNCLNPLFYGFLGKKFKRYFLQLLKYIPPKAKSHSNLSTKMSTLSYRPSDNVSSSTKKPAPCFEVE
- response (% specific binding) ([125I]-Angiotensin II; competing Hcy at log [Hcy] (M) = -2, parent: est. 34): 34
- response (% specific binding) ([125I]-Angiotensin II; competing Hcy at log [Hcy] (M) = -4, parent: est. 45): 66
- response (% specific binding) ([125I]-Angiotensin II; competing Hcy at log [Hcy] (M) = -6, parent: est. 98): 100

B5: AT1-YFP (wild type), P30556 R167K (protein)
chain: B3 chain with A167K
- response [1, 4]: 0.619 Δ net BRET
- response [1, 5]: 0.618 Δ net BRET
- response [2, 6]: 0.621 Δ net BRET
- response [2, 4]: 0.618 Δ net BRET

B6: AT1-YFP (wild type), P30556 C289S (protein)
chain: B3 chain with A167R, C289S
- response [3, 5]: 0.623 Δ net BRET
- response [3, 7]: 0.623 Δ net BRET
- response [1, 6]: 0.69 Δ net BRET
- response [1, 7]: 0.624 Δ net BRET

Other lines, results leading:

- response [1, 4]: 0.621 Δ net BRET
- response [1, 5]: 0.62 Δ net BRET
- response [2, 6]: 0.657 Δ net BRET
- response [2, 4]: 0.621 Δ net BRET
B1: AT1-YFP (wild type), P30556 R167N (protein)
chain: B3 chain with A167N

- response [1, 4]: 0.626 Δ net BRET
- response [1, 5]: 0.622 Δ net BRET
- response [2, 6]: 0.628 Δ net BRET
- response [2, 4]: 0.629 Δ net BRET
B2: AT1-YFP (wild type), P30556 R167A (protein)
chain: B3 chain

- response (% specific binding) ([125I]-Angiotensin II; competing Hcy at log [Hcy] (M) = -2, parent: est. 33): 31
- response (% specific binding) ([125I]-Angiotensin II; competing Hcy at log [Hcy] (M) = -4, parent: est. 46): 76
- response (% specific binding) ([125I]-Angiotensin II; competing Hcy at log [Hcy] (M) = -6, parent: est. 97): 100
B4: human angiotensin II type 1 (AT1) receptor, P30556 C289S (protein)
chain: B3 chain with A167R, C289S
